Data taken from publication PMC11398520 (bioRxiv, 2024).

Legend:
[1] = biological target: PS2 S-layer protein of Corynebacterium glutamicum (ex-vivo S-layer) (Corynebacterium glutamicum); assay: cryo-EM structure
[2] = biological target: the molecule itself; assay: negative-stain EM

**Q.** “PS2 S-layer protein of Corynebacterium glutamicum (ex-vivo S-layer) (natural protein)” was tested. Which stoichiometry N [1] did it give?
**A.** 6

B1: PS2 assembly domain (PS2^AD; residues 30 to 483) (domain or fragment)
chain: AQETNPTFNITNGFNDADGSTIQPVGPVNHTEETLRDLTDSTGAYLEEFQNGTVEEIVEAYLQVQASADGFDPSEQAAYEAFEAARVRASQELAASAETITKTRESVAYALKVDQEATAAFEAYRNALRDAAISINPDGSINPDTSINLLIDAANAANRTDRAEIEDYAHLYTQTDIALETPQLAYAFQDLKALQAEVDADFEWLGEFGIDQEDGNYVQRYHLPAVEALKAEVDARVAAIEPLRADSIAKNLEAQKSDVLVRQLFLERATAQRDTLRVVEAIFSTSARYVELYENVENVNVENKTLRQHYSALIPNLFIAAVANISELNAADAEAAAYYLHWDTDLATNDEDEAYYKAKLDFAIETYAKILFNGEVWQEPLAYVQNLDAGARQEAADREAARAADEAYRAEQLRIAQEAADAQKAIAEALAKEAEGNNDNSSDNTETGSSDIGS
**Q.** Does B1 bind [2]?
**A.** binds
